Molecular target: taxol-stabilized microtubules polymerized from porcine brain tubulin, P02550
Test: MT-binding assay (cosedimentation)
Conditions: chain shown with the change; 5 μM CG1 mutant, […] taxol–MTs; parent: est. 1.0; read off a plot

Chain of taxol-stabilized microtubules polymerized from porcine brain tubulin, P02550 (P02550 whole entry, chain 1 of 2): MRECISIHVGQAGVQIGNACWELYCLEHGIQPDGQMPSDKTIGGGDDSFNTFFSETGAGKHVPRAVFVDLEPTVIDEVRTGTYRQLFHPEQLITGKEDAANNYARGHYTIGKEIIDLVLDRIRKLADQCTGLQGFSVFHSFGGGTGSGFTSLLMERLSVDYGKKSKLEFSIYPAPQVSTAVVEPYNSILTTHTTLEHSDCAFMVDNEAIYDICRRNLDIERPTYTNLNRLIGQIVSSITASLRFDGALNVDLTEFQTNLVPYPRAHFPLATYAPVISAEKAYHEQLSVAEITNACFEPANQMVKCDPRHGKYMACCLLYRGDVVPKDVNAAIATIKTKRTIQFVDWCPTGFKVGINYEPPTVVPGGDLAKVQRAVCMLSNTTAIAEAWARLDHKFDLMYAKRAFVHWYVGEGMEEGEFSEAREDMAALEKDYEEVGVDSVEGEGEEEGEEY
Chain of taxol-stabilized microtubules polymerized from porcine brain tubulin, P02550 (chain, as listed by the source, chain 2 of 2): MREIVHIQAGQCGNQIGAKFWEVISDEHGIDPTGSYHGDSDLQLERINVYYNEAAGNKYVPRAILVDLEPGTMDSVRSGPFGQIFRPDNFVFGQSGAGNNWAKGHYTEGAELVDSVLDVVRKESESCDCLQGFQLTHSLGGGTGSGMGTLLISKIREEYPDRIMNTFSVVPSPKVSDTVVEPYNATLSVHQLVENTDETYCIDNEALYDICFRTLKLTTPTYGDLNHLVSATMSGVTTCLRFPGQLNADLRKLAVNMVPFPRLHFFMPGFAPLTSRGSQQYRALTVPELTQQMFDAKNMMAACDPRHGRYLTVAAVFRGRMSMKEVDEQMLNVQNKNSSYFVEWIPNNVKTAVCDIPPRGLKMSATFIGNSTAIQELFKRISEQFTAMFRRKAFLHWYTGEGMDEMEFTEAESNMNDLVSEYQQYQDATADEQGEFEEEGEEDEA

ratio to parent | Binder
0.28 | CLIP-170 CG1 fragment (58-140), P30622 K98E (protein) FRVGERVWVNGNKPGFIQFLGETQFAPGQWAGIVLDEPIGENDGSVAGVRYFQCEPLKGIFTRPSKLTRKVQAEDEANGLQTT
0.42 | CLIP-170 CG1 fragment (58-140), P30622 K98E; N99D (protein) FRVGERVWVNGNKPGFIQFLGETQFAPGQWAGIVLDEPIGEDDGSVAGVRYFQCEPLKGIFTRPSKLTRKVQAEDEANGLQTT
0.52 | CLIP-170 CG1 fragment (58-140), P30622 K123A (protein) FRVGERVWVNGNKPGFIQFLGETQFAPGQWAGIVLDEPIGKNDGSVAGVRYFQCEPLKGIFTRPSALTRKVQAEDEANGLQTT

Same assay, conditions: chain shown with the change; 5 μM CG2 mutant, […] taxol–MTs; parent: est. 1.0; read off a plot

ratio to parent | Binder
0.97 | CLIP-170 CG2 fragment (206-288), P30622 K238A (protein) KKGERELKIGDRVLVGGTKAGVVRFLGETDFAAGEWCGVELDEPLGKNDGAVAGTRYFQCQPKYGLFAPVHKVTKIGFPSTTP
0.4 | CLIP-170 CG2 fragment (206-288), P30622 K224A (protein) KKGERELKIGDRVLVGGTAAGVVRFLGETDFAKGEWCGVELDEPLGKNDGAVAGTRYFQCQPKYGLFAPVHKVTKIGFPSTTP
0.8 | CLIP-170 CG2 fragment (206-288), P30622 N253A (protein) KKGERELKIGDRVLVGGTKAGVVRFLGETDFAKGEWCGVELDEPLGKADGAVAGTRYFQCQPKYGLFAPVHKVTKIGFPSTTP
0.75 | CLIP-170 CG2 fragment (206-288), P30622 K277A (protein) KKGERELKIGDRVLVGGTKAGVVRFLGETDFAKGEWCGVELDEPLGKNDGAVAGTRYFQCQPKYGLFAPVHAVTKIGFPSTTP
0.28 | CLIP-170 CG2 fragment (206-288), P30622 K252A (protein) KKGERELKIGDRVLVGGTKAGVVRFLGETDFAKGEWCGVELDEPLGANDGAVAGTRYFQCQPKYGLFAPVHKVTKIGFPSTTP
0.23 | CLIP-170 CG2 fragment (206-288), P30622 K252E; N253D (protein) KKGERELKIGDRVLVGGTKAGVVRFLGETDFAKGEWCGVELDEPLGEDDGAVAGTRYFQCQPKYGLFAPVHKVTKIGFPSTTP

— article PMC9062740
